Data reported in patent publication US20180155451A1 (published 2018).

T1: FcγRIIb extracellular domain with C-terminal His tag (human, UniProt P31994 43-217)
T1 construct: extracellular domain; expressed in FreeStyle293 cells; analyte in the Biacore assay; also called FcgRIIb; 2b; not shown: His tag at the C terminus
T1 sequence (looked up): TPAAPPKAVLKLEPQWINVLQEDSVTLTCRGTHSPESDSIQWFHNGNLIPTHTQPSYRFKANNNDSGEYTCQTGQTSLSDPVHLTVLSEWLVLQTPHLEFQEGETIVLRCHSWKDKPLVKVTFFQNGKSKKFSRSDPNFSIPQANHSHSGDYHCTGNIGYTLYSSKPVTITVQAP


Molecular target: T1, FcγRIIb extracellular domain with …
Assay: SPR (Biacore), captured antibody, FcγRIIb analyte; binding relative to GpH7-B3/GpL16-k0 = 100

Ho/Con_2b | Binder
108 % of control | GpH7-B3 variant T335_10E/GpL16-k0 (antibody, human IgG1, kappa, homodimerized; mutation in both H chains; also called Ho Ab T335_10E) heavy: not shown light: DIVMTQSPLSLPVTPGEPASISCQASESLVHSNRNTYLHWYLQKPGQSPQLLIYKVSNRFSGVPDRFSGSGSGTDFTLKISRVEAEDVGVYYCSQNTHVPPTFGQGTKVEIERTVAAPSVFIFPPSDEQLKSGTASVVCLLNNFYPREAKVQWKVDNALQSGNSQESVTEQDSKDSTYSLSSTLTLSKADYEKHKVYACEVTHQGLSSPVTKSFNRGEC
104 % of control | GpH7-B3 variant T335_15Y/GpL16-k0 (antibody, human IgG1, kappa, homodimerized; mutation in both H chains; also called Ho Ab T335_15Y) heavy: not shown light: DIVMTQSPLSLPVTPGEPASISCQASESLVHSNRNTYLHWYLQKPGQSPQLLIYKVSNRFSGVPDRFSGSGSGTDFTLKISRVEAEDVGVYYCSQNTHVPPTFGQGTKVEIERTVAAPSVFIFPPSDEQLKSGTASVVCLLNNFYPREAKVQWKVDNALQSGNSQESVTEQDSKDSTYSLSSTLTLSKADYEKHKVYACEVTHQGLSSPVTKSFNRGEC
103 % of control | GpH7-B3 variant Y296_20W/GpL16-k0 (antibody, human IgG1, kappa, homodimerized; mutation in both H chains; also called Ho Ab Y296_20W) heavy: not shown light: DIVMTQSPLSLPVTPGEPASISCQASESLVHSNRNTYLHWYLQKPGQSPQLLIYKVSNRFSGVPDRFSGSGSGTDFTLKISRVEAEDVGVYYCSQNTHVPPTFGQGTKVEIERTVAAPSVFIFPPSDEQLKSGTASVVCLLNNFYPREAKVQWKVDNALQSGNSQESVTEQDSKDSTYSLSSTLTLSKADYEKHKVYACEVTHQGLSSPVTKSFNRGEC
231 % of control | GpH7-B3 variant V266_06M/GpL16-k0 (antibody, human IgG1, kappa, homodimerized; mutation in both H chains; also called Ho Ab V266_06M) heavy: not shown light: DIVMTQSPLSLPVTPGEPASISCQASESLVHSNRNTYLHWYLQKPGQSPQLLIYKVSNRFSGVPDRFSGSGSGTDFTLKISRVEAEDVGVYYCSQNTHVPPTFGQGTKVEIERTVAAPSVFIFPPSDEQLKSGTASVVCLLNNFYPREAKVQWKVDNALQSGNSQESVTEQDSKDSTYSLSSTLTLSKADYEKHKVYACEVTHQGLSSPVTKSFNRGEC

Molecular target: T1, FcγRIIb extracellular domain with …
Assay: SPR (Biacore), captured antibody, FcγRIIb analyte; binding relative to GpH7-A5/GpH7-B3/GpL16-k0 = 100

He/Con_2b | Binder
199 % of control | GpH7-A5/GpH7-B3 variant K326_07I/GpL16-k0 (antibody, human IgG1, kappa, heterodimerized; mutation in the B3 H chain only; also called He Ab K326_07I) heavy 1: not shown heavy 2: not shown light: DIVMTQSPLSLPVTPGEPASISCQASESLVHSNRNTYLHWYLQKPGQSPQLLIYKVSNRFSGVPDRFSGSGSGTDFTLKISRVEAEDVGVYYCSQNTHVPPTFGQGTKVEIERTVAAPSVFIFPPSDEQLKSGTASVVCLLNNFYPREAKVQWKVDNALQSGNSQESVTEQDSKDSTYSLSSTLTLSKADYEKHKVYACEVTHQGLSSPVTKSFNRGEC
230 % of control | GpH7-A5/GpH7-B3 variant H268_10E/GpL16-k0 (antibody, human IgG1, kappa, heterodimerized; mutation in the B3 H chain only; also called He Ab H268_10E) heavy 1: not shown heavy 2: not shown light: DIVMTQSPLSLPVTPGEPASISCQASESLVHSNRNTYLHWYLQKPGQSPQLLIYKVSNRFSGVPDRFSGSGSGTDFTLKISRVEAEDVGVYYCSQNTHVPPTFGQGTKVEIERTVAAPSVFIFPPSDEQLKSGTASVVCLLNNFYPREAKVQWKVDNALQSGNSQESVTEQDSKDSTYSLSSTLTLSKADYEKHKVYACEVTHQGLSSPVTKSFNRGEC
193 % of control | GpH7-A5/GpH7-B3 variant G237_20W/GpL16-k0 (antibody, human IgG1, kappa, heterodimerized; mutation in the B3 H chain only; also called He Ab G237_20W) heavy 1: not shown heavy 2: not shown light: DIVMTQSPLSLPVTPGEPASISCQASESLVHSNRNTYLHWYLQKPGQSPQLLIYKVSNRFSGVPDRFSGSGSGTDFTLKISRVEAEDVGVYYCSQNTHVPPTFGQGTKVEIERTVAAPSVFIFPPSDEQLKSGTASVVCLLNNFYPREAKVQWKVDNALQSGNSQESVTEQDSKDSTYSLSSTLTLSKADYEKHKVYACEVTHQGLSSPVTKSFNRGEC
160 % of control | GpH7-A5/GpH7-B3 variant H268_13S/GpL16-k0 (antibody, human IgG1, kappa, heterodimerized; mutation in the B3 H chain only; also called He Ab H268_13S) heavy 1: not shown heavy 2: not shown light: DIVMTQSPLSLPVTPGEPASISCQASESLVHSNRNTYLHWYLQKPGQSPQLLIYKVSNRFSGVPDRFSGSGSGTDFTLKISRVEAEDVGVYYCSQNTHVPPTFGQGTKVEIERTVAAPSVFIFPPSDEQLKSGTASVVCLLNNFYPREAKVQWKVDNALQSGNSQESVTEQDSKDSTYSLSSTLTLSKADYEKHKVYACEVTHQGLSSPVTKSFNRGEC
140 % of control | GpH7-A5/GpH7-B3 variant A327_10E/GpL16-k0 (antibody, human IgG1, kappa, heterodimerized; mutation in the B3 H chain only; also called He Ab A327_10E) heavy 1: not shown heavy 2: not shown light: DIVMTQSPLSLPVTPGEPASISCQASESLVHSNRNTYLHWYLQKPGQSPQLLIYKVSNRFSGVPDRFSGSGSGTDFTLKISRVEAEDVGVYYCSQNTHVPPTFGQGTKVEIERTVAAPSVFIFPPSDEQLKSGTASVVCLLNNFYPREAKVQWKVDNALQSGNSQESVTEQDSKDSTYSLSSTLTLSKADYEKHKVYACEVTHQGLSSPVTKSFNRGEC
147 % of control | GpH7-A5/GpH7-B3 variant I332_09D/GpL16-k0 (antibody, human IgG1, kappa, heterodimerized; mutation in the B3 H chain only; also called He Ab I332_09D) heavy 1: not shown heavy 2: not shown light: DIVMTQSPLSLPVTPGEPASISCQASESLVHSNRNTYLHWYLQKPGQSPQLLIYKVSNRFSGVPDRFSGSGSGTDFTLKISRVEAEDVGVYYCSQNTHVPPTFGQGTKVEIERTVAAPSVFIFPPSDEQLKSGTASVVCLLNNFYPREAKVQWKVDNALQSGNSQESVTEQDSKDSTYSLSSTLTLSKADYEKHKVYACEVTHQGLSSPVTKSFNRGEC
